# Tested on: Saccharomyces cerevisiae
# Assay: transcriptional activation domain activity (GFP:mCherry ratio, weighted mean of sorted bins, harmonized to initial dataset scale) (arbitrary fluorescence ratio units); higher = stronger transcriptional activation
# Conditions: beta-estradiol 1 µM; induction time 4 h
# Procedure, shortened: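 Values are activation activity, found as the read-weighted mean of bin median fluorescence, averaged across barcodes and then mapped linearly onto the initial dataset scale. Barcoded protein tiles fused to an estradiol-inducible synthetic transcription factor were integrated at the URA3 locus of GFP-reporter yeast diploids. Cells were induced for 4 hours at 30 °C with 1 uM beta-estradiol in SC, sorted into 8 bins by GFP:mCherry ratio, and barcode-sequenced, with tiles under 50 reads discarded.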
row,Sequence,transcriptional activation domain activity
1,CNVLCYGYNVVLLVMKLYVKRVFVSPRGVRQPLVLAPYEHTLYIRFSCQPITD,29300
2,TSSPRRNSPPTRSTSSSPPSSPTSPYPSSSPPRPAPSPRPCARRGPKTPPSRP,30300
3,MSPSSAVFFFFFFCIALFDSVWLVSFFMVLFFLFDSSLYSLLFFSCLFFFIHS,50000
4,EKGEEGGSGGEGGEGRRGGQARGTGRRAGQEGKGPGKGEGGAARRRKEGEARK,54500
5,EKGEGDKNRRGRRRGGRGRGGGGDKDKEKDKEGGGGGGRGERKTEGSGGISAQ,42000
6,CDSVYLHQDQCAHVLEYCMDATPGLINYIQLYFCSPIKPFIFLIMCCWLLFLF,51500
7,NGFCYSAITGGSIVLLLPGWYVFFYSLELQSRSMLCGSIRLGWAIIYAFFLGF,58900
8,SAEHQTEAYESDGGRQCVRLLLTSYCSPILIVALHPVLPGRFLCVVKLATQKS,39900
9,MISWLLCFFGFRGGFFYMVFFLICTIFCFAVFGFRFLQLSTFFFHNIFLMFFF,51900
10,FANWLGLQKNGMGMRLFPFFIFSLFFLSFFSLFWGFSFFFSFSFFFGFSFFWF,23100
11,MVFFFFFFHSVEFHFFLWYLSFFRFFFVFLLFPWLDWIGRAGIGLELLLSLFI,47400
12,NSSEEEDRNRRERKRKREKEREKKKESRRHRSRSRRSKEVEDDDEKDRKRHRR,14500
13,DDEDEEQEEEEEDVDPEVRRKEELRARMAKMSGGMGMAGMFGMMPMPGAGAPP,41500
14,HPLSQRYVLIMSITRLCIPLYFYGYEDNFIGHETTHWIWILVIYVSLQVLILF,40200
15,PQPAAGKRKRGRPRTSLPESEPRSEDRRSNTPSAAPQQSAKKSRGRPPKAASK,38800
16,MFFPLVLSKMLICVSFLPVTLLISYLSFFFLFFTGLGLGATAFFFFTFLLYFS,42100
17,LFFLSFLFFPFLSFLSFLFLFSFLFFPSFLFFPSLFLFLFSSPFHPIPFLFSS,57800
18,LCSWLIPRVLVLLGRKGCEKLMENIKALFDLFFQIIPQYPNFWCWESILLDYL,41800
19,NGPQGQQQQGQRAGQRGQGAGAGEAGQQNGQQGQQAGQRGRGTQAGAAGQQNG,20600
20,MEYLIGHMEIYSVHFLHFCFFLRFLIFFFPLFFFFSYFSFHSYIYTFFFLEII,31800
21,GVDGDGAADADADEDDEEGEEDEDDEGGGAGRKRKKARMEAAPKAKPKPAPAK,27700

row,Sequence,transcriptional activation domain activity
1,ITQRLGENIICAVCITYLHSLLLVTILDRSEGCLLQYSLRMHIASKFQPSHQF,51500
2,LLVLLVFVADTLHMMGTTQFYWSMLVLCRRSDAAMCEAGLSWGSSISFPMNYV,42600
3,MYHITVFSLPLNLYCARCFALTLTILMGKSFLMGFINVFNRICTLLVTTLFLI,70100
4,ASIISQRSGIVRALSRLMIFDRKLRVKDTHLRRLQHRIVIQSLVFGAFFSCVG,54700
5,KIISAFGWNADKHLGFALLQLCMDGNRIRSPLAAMMLLMYYVTLMTHCPQILT,63700
6,PDGSAITGSAVTKRKQSKSRNGCITCKAKRLKCDETKPSCQQCAKRSVTCGGY,28100
7,IDFHQHESLIGTEDAFFWFLVPLIGVVCIGVCTVLHYVVLIFTHSFRLLYSLV,26700
8,MEVCSVWISSLWFFVFSAFSVLGLWSLVFGIWSFRESGWYMGPGFFFFFFLIL,63100
9,ELLCIDRETGETRFVEPKVPDGISLRNFGIQVVSSCVLLLLVSLRPPHVLCAC,53600
10,MSYCIDFPVISSFPAASFYFIFMGTLQDHLPFSLLVYSTLIPFFFFSFLFLSF,41600
11,EEESQAKKTTAAASSTKDLDPKGGTSGKEKKENEGTLTKRGKSGRRKVRKSVL,17800
12,GDAGGSSAAEQREAGQERRQRRGAERRQRQSVFEQLGGAEQRGAGRGSAGRGG,< 6570
13,MADTSTDGGPERTPVAAPISIKACDQCRARKVRCDKTSPCANCRKHNVKCTTS,19000
14,KGGRKCKKGRAGEEAGMPARRRKGGERGGRGGKTGARGGEEGGGGEGGAARNG,34800
15,MFDYLVFTLCPCIFFILFLLILLVLLHKALVVFFFYHYSILVLVVPYYCLFVF,86400
16,NLLSKELLMPAVSELNEYLDLFKNNFLPHFPIIHPSLLDLDLDSLQRYTNEDG,48900
17,MADATATGSTPPQAPLPEPKRHAACDECRLRKLKCSGTRPACERCAREHIACV,40100
18,FILGLIFVFAFVWHERSMAACPLIPIKAMTAQATFVLVCTATGWASFSIWIYY,60700
19,IWIIQCCVLPLCLHFGSIFPGLQYTLLAFLPYYCCFSHYFPVLIPVLILICFI,63700
20,ERKRKREMAGEDDGRAEAKKVKKEKKEGEKEREKKGKKERKGKKEKEKRKKDM,16800
21,MGGVVWCFYRVFLFPFLLSPIIPSLLLSSLHTFPLSLTFTFTFILCRMFYVCT,53500

row,Sequence,transcriptional activation domain activity
1,TGILAVTLWNIFINKYWPKRRALVVIVILLHVLITVNFATNWAFTYSAFIQNG,49800
2,RLRVLYSAWQLHVDGKVRIGTLAIIGSFKELRYLGGKRTRRCGLVALLLLSAY,50700
3,RHICLILINIAVGLRFIFYAIDPYCIYNIFNPILNRLLFVTFYWIALLAYVLM,48100
4,MFCPDVCLVLSIGDVLLAMSYWRCLRETASLFHYHLVPPFELLPLYSVRITAA,58800
5,MIITLSRLFFFFFFFPVRFLAFLNHFFLFFFFFWLRWGLSVCFFILSWPGEKS,46400
6,MYNMLVCLAIEFLWQHLYFFLFLYLTLCCDTFQLILYTPLSMFLFFIFILLKK,16500
7,WGFRVMSQLPTFWYRTEYFWIDYPHWDMKPELKRYYLMQMAYWLQQLIVLVLG,92400
8,TSSPSAISSTSVNTLLVAGSEGTDAHVKTVGEQLKTRMGVKGGGKGTRWSGKM,57300
9,APTDETGDAETKPRGRGRPKGSGTAKKAESQPESAEPTTARRGRKRASAAAES,43400
10,LLLPLLLPVLHIFPFLIDFLLPVLDLLLALLVLLPALLDLLLVLLVLLPPLLP,56100
11,FLLDIFLLLVPSFPFSYTPFLVTSLFLVLCDIDVFLRFIYVHIYLVTLICTFM,30400
12,DFKHPMEPLACNWEDCDFLGDDTCSIVNHINCQHGINFDIQFANPDSFLPGSI,141000
13,MYHAKFLYLLLGFLVYFLSSQTSINVYYISLNPFLFLAHPTILLIPLFPFRYT,39700
14,SCIVLYACSKIIIYLFLMEKVYVVTAVGATRANFMLYRINLSLLIPYVGIFAL,52300
15,MSRVLPEKLPLHLQAACLPQRDLLTALPVVALRCYTDGPQLLRGLVCCLCDMW,61600
16,LLHLAISQLQAYLDRFRTRLNAVHALHLKRLILFLTALDQFTCARVAGMKVRS,33700
17,SRLDAIEEEEEDLAAKNEGSTSNIEVDEIDIKSRDLKVGDIVKLGKNQRVPAD,39600
18,LFGPLDFLDFLDFLDFLDFLDFLDFLDFLDLWTFWPWTFWTVGLFGLLDFLTF,46300
19,ILVYLSSVKLRNYRGNTYSFIHLTPWVPLDLLKYACDFLGLLSGFNLLPLYFQ,56300
20,SLPPPRFSPMFSFSLMSYLRCFDYYVCFFFSLFCFFSPALLVEGVVTFFSFIH,60100
21,LLYVMALLMWLFAIAILFPPSALTVVRHDFLEQIPQVVPNLDVAYGRNIEGVK,41800

row,Sequence,transcriptional activation domain activity
1,PGLILVYSHLNLLLRNHADLEMIYIIGPGHGAPAALAALWLEGSLERFYPGEY,31000
2,LKHGMMRLDFLCKFSMYGGIERDNQFVKKATGVAFPCVFVLRCLKRPVLTESE,55100
3,MPSAYHLGITPFGVHQWDINLRTLQRYLFFLYCCWIIWGILVLLLKVIILLQY,39700
4,HHLVITHVILFCLITFRCFTVIVRSIYERWHIKSAVIVLDLGSSWGLAANVPW,43600
5,ESEVAASENGKGKKEEEEKKRKKGLASTRQRNAAGKQSSSSKEEGKGARAYRS,26100
6,MLPLVLLLLLLLLLLLLLLLLLLLLLLLLLIMMMIMMMMFLLFLLLLRARVRQ,13600
7,QVGRKANQKEEKETEKERTEKDKKQGRVGVGGVAKTAIVAGAWCYVVGVVAEL,34600
8,MGVWFGMAVLFLFLHLGFFLFCYFICLLLDNSFFLSWPLETVRALQMGLQIGG,36700
9,MSIPPRLFYITFLLCFFNLLAYFHSLLFLSFNFPLQYLFTVNSVMHLVVSLPG,53900
10,LASIVMFRTFHEGSTWTGLTRTRMFWYVFLFSFFWYWVPGYIMPILSFFSILC,69200
11,VWEMCLVVGMGSELDVLYRVNNTVFVGCFCLARLTIVLLFAMSMLYLPMFRRD,61200
12,QSPPPAKKAKTAAGGRGKKVKPEPESGSEAEAKPEPVASKRGRVKKPAKAEQE,14800
13,LFYFTFSFFVRTAFITLPIYLFWFLYSYFWNYWTSYFPWNDLFLPAWPISRTR,39300
14,DWYFDLPLWVFVCFFLFVFLTLMTFRTPSLTRYYCTVVYYLLGKWVGNCIVYT,18200
15,SIWSFSTLLSILARDHVFYFFIKQNVDTFYIWLLETTAIYYIFMLGPIMFLSI,60600
16,FLSGWPLVLGKFGFDPKFNSCWYLNQDDRLTLIWLWCTFYFWVVASVIYSLLV,62300
17,RPLSEASRDLALPSVTRVWCDEKDNIFYMQDVNFVTDITKVLLVSVLSTVARC,47600
18,VWIVIYISLSYLFSGVLESVILIYSWIRGFPVIQLLFPKCQVYMNGFLVLFVI,61200
19,MGNGVRCLLFGKDFSFIFLLYRFSMWFLISPFQLPCWVLVILSCSCSSLSIFG,65700
20,MPVLPYFFAKFIIDIPRIVIGGSMFSLALVVFFPYQQPFVRMYGMVIILYFYS,51200

# Source: the supplement of paper PMC12636428
